Assay results from the nanobody polyreactivity screen of Harvey et al. (2022).

assay: yeast display, Sf9 membrane polyspecificity reagent, FACS + sequencing; frameworks hold sequencing errors
Procedure, shortened: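 Genes from sorted yeast were amplified by colony PCR, read by MiSeq 2 × 250 sequencing and filtered on CDR length. These cells carried a synthetic nanobody library in Saccharomyces cerevisiae BJ5465 and were sorted by FACS into low and high (top ~1%) gates on anti-HA and streptavidin fluorescence. Polyreactivity is labelled according to the gate of origin.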

Sequence	polyreactivity (PSR sort gate)
QVQLVESGGGLVQAGGSLRLSCAASGRTFRANTMGWYRQAPGKERELVAAISHSGGSTYYADSVKGRFTISRDNAKYTVYLQMISLKPEDTAVYYCATDGGSYSWASPRVDYWGQGTQVTVSS	low polyreactivity
QVQLVESGGGLVQAGGSLRLSCAASGRTFRAYAMGWNRQPPGKVRELVAVISLSGGSTYYADSVKGRFTISRDNAKNTVYLQMNSLKPEDTAVYYCAAVDWSYTGWRYDYWGQGTQVTVSS	low polyreactivity
QVQLVESGGGLVQAGGSLRLSCAASGRTFRAYGMGWYRQAPGKERELVAVISWRDGSTFYADSVKGRFTISRDNAKNTVYLQMNSLNPEDTAVYYCNTAYYPGNYSQYDYWGQGTQVTVSS	low polyreactivity
QVQLVESGGGLVQAGGSLRLSCAASGRTFRDNAMGWYRQAPGKDRELVAAIDIDSSTYYADSVEGRFTISRDNAKNTVYLQMNSLKPEDTAVYYCAAESYHDGKGFPDYEYWGQGTQVTVSS	low polyreactivity
QVQLVESGGGLVQAGGSLRLSCAASGRTFRDYAMGWYRQEPGKESELVAAITWIGGTTYYADSVKGRFTISRDNAKNTVYLQMNSLKPEDTAVYYCAKKRYHWYGRYYYWGQGTQVTVSS	high polyreactivity
QVQLVESGGGLVQAGGSLRLSCAASGRTFRFDAMGWYRQAPGKEREFVAAISRSVGSTYYADSVKGRFTISRDNAKTTVYLQMNSLKPEDTAVYYCNGDYRSRYVEYDYWGQGTQVTVSS	high polyreactivity
QVQLVESGGGLVQAGGSLRLSCAASGRTFRFNAMGWYRPAPGKERELVAAIRWSGSSTYYADSVKGRFTISRDNAKNTVYLQMNSLKPEDTAVYYSAKRVKTTWFGYWGQGTQVTVSS	high polyreactivity
QVQLVESGGGLVQAGGSLRLSCAASGRTFRFNAMGWYRQAPGKERELVAAISSGGNTYYADSVKGRFTISRDNAKNTVYLQMNSLKPEDTAVYYCNTVYLYGTHDYWGQGTQVTVSS	low polyreactivity
QVQLVESGGGLVQAGGSLRLSCAASGRTFRFYAMGWSRQAPGKEREMVAAISYSGGSTYYADSVKGRFTISRDNAKNTVYLQMNSLKPEDTAVYYCAAPYYRSTTSYDYWGQGTQVTVSS	high polyreactivity
QVQLVESGGGLVQAGGSLRLSCAASGRTFRFYAMGWYRQAPGKERELVAAISWNGGRTYYADSVKGRFTISRDNAKNTVYLQMNSLKPEDTAFYYCAKDRGGPFYWRYPLGYWGQGTQVTVSS	high polyreactivity
QVQLVESGGGLVQAGGSLRLSCAASGRTFRFYAMGWYRQAPGKERELVAAITYRGGTYYADSVKGRFTISRDNAKNTVYLQMNSLKPEDTAVYYCAVKPSGWSGMDYWGQGTQVTVSS	high polyreactivity
QVQLVESGGGLVQAGGSLRLSCAASGRTFRGNAMGWDRQAPVKERELVAAITWGVGSTYYADSVKGRFTISRDNAKNTVYLQMNSLKPEDTAVYYCATRSYRGRDGFGYWGQGTQVTVSS	high polyreactivity
QVQLVESGGGLVQAGGSLRLSCAASGRTFRGNAMGWNRQTHGKERELVAAISWSGGRTYYADSVKGRFTISRDNAKNSVYLQMNSLKPEDTAVYDCAAVVPKYGQAGYDYWGQGTQVSVSS	high polyreactivity
QVQLVESGGGLVQAGGSLRLSCAASGRTFRGNAMGWYRPAPGKERELVAAITTAGGTYYADSVKGRFTISRDNAKNTVYLQMNSLKPEDTAVYYCAKLSHRGQSTGVDYWGQGTQVTVSS	low polyreactivity
QVQLVESGGGLVQAGGSLRLSCAASGRTFRGNAMGWYRQAPGKERELVAAISRRGVSTYYADSVKGRFTISRDNAKNTVYLQMNSLKPEDTAVYYCAVVVYQGFRSKYYYWGQGTQVTVSS	high polyreactivity
QVQLVESGGGLVQAGGSLRLSCAASGRTFRGNTMGWYRQAPGKERELVAAISRGGSTNYADSVKGRFTISRDNTKNTVYLQMNSLTPEDTAVYYCAKDRYVRWGRTFEFDYWGQGTQVTVSS	low polyreactivity
QVQLVESGGGLVQAGGSLRLSCAASGRTFRGYAMGWYRQAPGKERELVAGITQRGGTTYYADSVKGRFTISRDNAKNTVYLQMNSLKPEDSAVYYCAAAFGRVTKYGYRNQYGYWGHGTQVTVSS	high polyreactivity
QVQLVESGGGLVQAGGSLRLSCAASGRTFRINAMGWYRQAPGKERELVAAINDGGDTYADSVKGRFTISRDNAKNTVYLQMNSLKPEDTAVYYCAVRILTNRWYYGYWGQGTQVTVSS	low polyreactivity
QVQLVESGGGLVQAGGSLRLSCAASGRTFRINAMGWYRQAPGKERELVAAITRGDTNYADSVKGRFTISRDNAKNTVYLQMNSLKPEDTAVYYCNAELSFRYPVFRELDYWGQGTQVTVSS	low polyreactivity
QVQLVESGGGLVQAGGSLRLSCAASGRTFRINAMGWYRQAPGKERELVAAITSGGRTNYADSVKGRFTISRDNAKNTVYLQMNSLKPEDTAVYYCAADTTHWYYLGYGYWGQGTQVTVSS	low polyreactivity
QVQLVESGGGLVQAGGSLRLSCAASGRTFRINAMGWYRQAPGKEREMVAAIRSRAGSTYYADSVKGRFTISRDNAKNTVYLQMYSLKPEDTAVYYCAAKFPFDVDYWGQGTQVTVSS	high polyreactivity

Sequence	polyreactivity (PSR sort gate)
QVQLVESGGGLVQAGGSLRLSCAASGRTFRINTMGWYRQAPGKERELVATITGSGGSTYYADSVKGRFTISRDNANNTVYLQMNSLKPEDTAVYYCAAFGDQNEYDYWGQGTQVTVSS	low polyreactivity
QVQLVESGGGLVQAGGSLRLSCAASGRTFRKNAMGWYRQAPGKERELVAAISDTGGSTYYADSVKGRFTISRDNAKNTVYFQMNSLKTEDTAVYYCAATVRYRGFYYWGQGTQVTVSS	high polyreactivity
QVQLVESGGGLVQAGGSLRLSCAASGRTFRKYAMGWYRQAPGKERELVAAINKSGGTTYYADSVKGRFTISRDNAKNTVYLQMNSLNPEDTAVYYCAADFYYYSYHSGQAPYDYWGQGTQVTVSS	high polyreactivity
QVQLVESGGGLVQAGGSLRLSCAASGRTFRKYAMGWYRQAPGKERELVAAITTSGARTYYADSVKGRFTISRDNAKNTVYLQMNSLKPEDTAVYYCNAVIPYYGIEFDYWGQGTQVTVSS	high polyreactivity
QVQLVESGGGLVQAGGSLRLSCAASGRTFRLYAMGWYIQAPGKERELVAAISSTGSTYYADSVKGRFTISLDNAKNTVYLQMNSLKPEDTAVYYCNAKLPVTSLKFDYYYWGQGSQVTVSS	high polyreactivity
QVQLVESGGGLVQAGGSLRLSCAASGRTFRLYAMGWYRQAPGKERELVAAIDGNGGSTYYADSVKGRFTISRDNAKNTVYLQMNSLKPEDTAVYYCAVSVSVYLDYRRDHQRGYDYWGQGTQVTVSS	low polyreactivity
QVQLVESGGGLVQAGGSLRLSCAASGRTFRLYAMGWYRQAPGKERELVAAISWRGGSTYYADSVKGRFTISRDNAKNTVYLQMNSLKPEDTAVYYCAAGTSRHLSNGYYYWGQGTQVTVSS	high polyreactivity
QVQLVESGGGLVQAGGSLRLSCAASGRTFRLYAMGWYRQAPGKERELVAAITRGGRTNYADSVKGRFTISRDNAKNTVYLQMNSLKPEDTAVYYCATDLVGAGVKGVRFVGRYRGDYWGQGTQVTVSS	low polyreactivity
QVQLVESGGGLVQAGGSLRLSCAASGRTFRLYAMGWYRQAPGKERQLVAAIDGNGGSTYYADSVKGRFTISRDNAKNTVYLQMNSLKPEDTAVYYCAVSVSVYLDYRRDHQRGYDYWGQGTQVTVSS	low polyreactivity
QVQLVESGGGLVQAGGSLRLSCAASGRTFRNNAMGWYRQAPGKEREFVAVISNTGGSTYYADSVKGRFTISRDNAKNTVYLQMNSLKPEDTAVYYCAVRPRYSQYYYWGQGTQVTVSS	high polyreactivity
QVQLVESGGGLVQAGGSLRLSCAASGRTFRNNAMGWYRQAPGKERELVAAISSRGGSTYYADSVKGRFTISRDNAKNTVYLQMNSLKPEDTAVYYCADDHSRYGDYWGQGTQVTVSS	high polyreactivity
QVQLVESGGGLVQAGGSLRLSCAASGRTFRNYAMGWYRQAPAKERELVAAITWSGGSTYYADSVKGRFTISRDNSKNTVYLQMYSLKPEDTAVYYCNVRSYTRTYNYWGQGTQVTVSS	high polyreactivity
QVQLVESGGGLVQAGGSLRLSCAASGRTFRNYAMGWYRQAPGKERELVAGITYSGGSTFYADSVKGRFTISRDNAKNTVYLQMNSLKPEDAAVYYCAAVYVPYYWLGRSRGLDYWGQGTQVTVSS	high polyreactivity
QVQLVESGGGLVQAGGSLRLSCAASGRTFRPNAMGWYRQAPGKERELVAAISRRGGSTNYADSVKGRFTISRDNAKNTVYLQMNSLKPEDTAVYYCNSRGRRGYDYWGQGTQVTVSS	high polyreactivity
QVQLVESGGGLVQAGGSLRLSCAASGRTFRRNAMGWYRQAPGKERELVASINRGGGTNYADSVKGRFTISRDNAKNTVYLQMNSLKPEDTAVYYCAAGPGTYWGYDYWGQGTQVTVSS	low polyreactivity
QVQLVESGGGLVQAGGSLRLSCAASGRTFRRNAMGWYRQAPGQERELVAGIRKRGGSTYYADSVKGRFTISRDNAKNTVYLQMNSLKPQDTAVYYCAAQPALTYRFYYWGQGTQVTVSS	high polyreactivity
QVQLVESGGGLVQAGGSLRLSCAASGRTFRRYAMGWYRQAPGKERELVAAISGDGSTHYADSVKGRFTISRDNAKNTVYLQMNSLKPEDTAVYYCAADYTDWYYVNYPAAPYRYDYWGQGTQVTVSS	high polyreactivity
QVQLVESGGGLVQAGGSLRLSCAASGRTFRRYAMGWYRQAPGKERELVAAISSSTGRTYYADSVKGRFTISRDTAKNTVYLQMNSLKPEDTAVYYCNAVHRYERDYWGQGTQVTVSS	high polyreactivity
QVQLVESGGGLVQAGGSLRLSCAASGRTFRRYVMGWYRQAPGKERELGAAITGSGGSTYYADSVKGRFTISRDNAKNTVYLQMNSLKPEDTAVYYCAADGICFYRSYGYDYWGQGTQVNVSS	high polyreactivity
QVQLVESGGGLVQAGGSLRLSCAASGRTFRRYVMGWYRQAPGKERELVASITRGTGTDYADSVKGRFTISRDNAKNTVYLQMNSLKPEDTAVYYCNAEVKGFFYDYDYWGQGTQVTVSS	low polyreactivity
